Results from patent publication US20100184651A1, “TARGETED FUSION PROTEINS FOR CANCER THERAPY” (Dabur Pharma Limited, priority 2005, published 2010).

Key:
[1] = target: T1, recombinant human cathepsin D (Homo sapiens, UniProt P07339); assay: Cleavage at the linker site with recombinant human cathepsin D, followed by LC-MS; format: biochemical; settings: cathepsin D at a ratio of ~400:1 (w/w), pH 3.5, 37° C.
T1 construct: purchased R&D Systems, Abingdon, UK
Protocol: To evaluate the role of the linker used we carried out an in vitro digestion of the protein with cathepsin D at a ratio of ˜400:1 (w/w) and followed the cleavage by mass spectrometry as a function of time (FIG. 16). The first cleavage occurred at the linker by around 30 minutes of treatment with the protease, giving two peptides of 3914.4 Da (FIGS. 17a) and 4477 Da (FIG. 17b), which corresponded to M (1-34) L (expected mass 3915.5 Da) and L (35-71) H (expected mass 4475 Da) peptides respectively although the majority of the protein was still intact (FIG. 17c), which justified our design of the protein. Subsequently, the protein was cleaved at other sites as mapped by mass spectrometry till 2 H of digestion (FIGS. 18a-e, 19).
LC/MS analyses were carried out using a Waters 2695 high-perfomance liquid chromatography (HPLC) system (Milford, USA) and Micromass Quattro Micro mass spectrometer (Micromass, UK) using a ZORBAX Eclipse XDB-C18 (4.6×150 mm, 5 μM) column. Mobile phase solvents were 0.1% HCOOH in Milli Q Water (A) and 0.1% HCOOH in Acetonitrile (B). Fusion protein was eluted using a linear gradient program: 0 min 100% A; 60 min 100% B; 60-75 min 100% A, at a constant flow rate of 1.2 mL min^−1, and a volume of 50 μl was directed to the detector of the mass spectrometer. […]

[2] = target: T2, VPAC 1 receptors expressed on A549 cells (Homo sapiens, UniProt P32241); assay: Immunocytochemical staining for cell surface receptors on A549 cells; format: binding
T2 construct: the receptors were overexpressed in the A549 cell line; endogenous in cells; host or cells: A549 human lung carcinoma cells (acetone-fixed on slides)
T2 sequence (P32241 31-457): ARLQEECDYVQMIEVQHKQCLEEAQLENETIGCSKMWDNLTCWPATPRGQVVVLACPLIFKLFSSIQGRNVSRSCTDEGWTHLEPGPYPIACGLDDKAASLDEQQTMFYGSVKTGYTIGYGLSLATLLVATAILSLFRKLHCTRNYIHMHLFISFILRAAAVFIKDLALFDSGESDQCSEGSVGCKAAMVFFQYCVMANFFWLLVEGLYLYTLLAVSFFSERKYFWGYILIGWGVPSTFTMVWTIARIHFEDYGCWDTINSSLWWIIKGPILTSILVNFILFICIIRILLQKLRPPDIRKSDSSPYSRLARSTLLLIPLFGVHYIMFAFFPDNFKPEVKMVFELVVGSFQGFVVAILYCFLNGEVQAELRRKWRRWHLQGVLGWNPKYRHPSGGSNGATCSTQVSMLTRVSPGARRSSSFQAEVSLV
Protocol: Similarly, when, the cells were treated with fusion protein and immuno-stained with anti-BID. […] A similar observation was made when A549 cells were pre-treated with VIP antagonist, VIP (10-28) followed by fusion protein and immunostaining with anti-BID (FIG. 15e).
Cultured (A549 human lung carcinoma) cells were detached with trypsin/EDTA and pelleted by low-speed centrifugation. The cells were resuspended in PBS. Cell suspensions were coated onto poly-L-lysine coated glass slides, dried and then fixed for 10 min in acetone at −20° C. After drying for 2 h, slides were rinsed in PBS and then treated for 5 min with water/H2O2 in order to block endogenous peroxidase. Slides were again rinsed again in PBS and treated with normal rabbit and goat serum to block background staining. Slides were then incubated with antagonist, VIP(10-28) and/or fusion protein for 1 hr each. Slides were again washed with PBS and incubated with rabbit-anti-BID antibody (dilution 1:1000) or goat anti-VPAC 1 antibody (dilution 1:1000) for 1 h. Slides were again washed in PBS and incubated with […] IgG peroxidase labelled antibodies for anti-BID and anti-VPAC 1 primary antibodies respectively, for 1 h followed by addition of the 3,3′-diaminobenzidine-tetrachloride (DAB) substrate and hydrogen peroxide in PBS. […]

A549 cells = assay: Mitochondrial membrane potential analysis with JC-1 dye; format: cell-based, human; settings: dose dependent
Protocol: After having determined the role of the targeting VIP peptide and the cathepsin cleavable linker we investigated the role of the apoptotic BID peptide. In this regard, we monitored the mitochondrial membrane potential of the cells on treatment with fusion protein using JC-1 dye.
Aliquots of cell suspensions were incubated with 4 μM of JC-1, a specific MMP dependent fluorescence dye [Hortelano S. et al., FEBS Lett, 1997, 411: 77-82], for 30 min at 37° C. and washed once in PBS. Mitochondrial depolarization was qualitatively estimated by fluorescence microscopy with a long-pass filter. […] JC-1 forms aggregates in cells with a high red fluorescence (585 nm) indicating a normal MMP. MMP loss results in a reduction in red fluorescence with a concurrent gain in green fluorescence (530 nm) as the dye shifts from aggregates to monomeric state. Therefore, retention of the dye in the cells can be monitored through the increase in green fluorescence. The fluorescence was measures using Varioskan spectrofluorimeter (Thermo Electron Corporation, Waltham, Mass. USA) and the data was converted to density plots.

[3] = tested on: normal murine cell line, NIH3T3; assay: MTT cytotoxicity assay, NIH3T3; format: cell-based, mouse; settings: NIH3T3, 24 h treatment
Protocol: Subsequently, cytotoxicity of this protein was determined on cell lines over expressing the VIP receptor like colon carcinoma cell line, HT29 and non small cell lung carcinoma cell line, A549 and compared with a normal murine cell line, NIH3T3, by a quantitative MTT assay. […] Different sensitivities of the two cell lines may be attributed to the differential expression of the VPAC1 receptors and the inherent sensitivity of the cell lines.
Cells were seeded in 96-well microplates, followed by the addition of various concentrations of the fusion protein. After a 24-hour incubation, the MTT assay was performed according to the method of Mosmann [Mosmann T, J Immunol. Methods, 1983, 55-63]. Serial dilutions of chemotherapeutic agents prepared by the Multiplication method were placed in a 96-well microplate. Since the cell lines employed in the present study had different proliferation rates, the number of cultured cells was adjusted to a density that allowed the untreated control cells to grow exponentially. […] Then 200 μl of DMSO was added, and the absorbance was determined at a wavelength of 540 nm using an ELISA reader. Results were expressed as the percent survival of the control experiments in which the cells were not exposed to any protein. […]

T1 sequence (P07339 65-412): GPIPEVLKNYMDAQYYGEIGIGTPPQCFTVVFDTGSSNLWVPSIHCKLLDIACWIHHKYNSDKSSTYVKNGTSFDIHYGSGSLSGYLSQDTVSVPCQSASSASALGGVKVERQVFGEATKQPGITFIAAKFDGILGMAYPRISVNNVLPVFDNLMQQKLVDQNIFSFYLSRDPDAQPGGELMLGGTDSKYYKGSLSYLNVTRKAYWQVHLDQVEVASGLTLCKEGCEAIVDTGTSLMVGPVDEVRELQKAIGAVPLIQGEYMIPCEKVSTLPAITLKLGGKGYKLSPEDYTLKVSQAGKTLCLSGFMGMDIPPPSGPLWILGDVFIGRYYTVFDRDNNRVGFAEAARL

time of first cleavage at the linker [1]: around 30 minutes
immunostaining with anti-BID after treatment of cells ([2]; A549 cells treated with fusion protein, anti-BID): localization of the protein on the cells
B1: fusion protein: 71 amino acid recombinant polypeptide: VIP, cathepsin cleavable linker SLLIARRMPNFN, BH3 domain of BID, His tag (SEQ ID NO: 10) (protein)
chain: MHSDAVFTDNYTRLRKQMAVKKYLNSILNGSSLLIARRMPNFNEDIIRNIARHLAQVGDSMDRLEHHHHHH
modifications: This amino acid sequence was artificially generated using naturally occurring mature human VIP peptide produced in E.coli as fusion protein
availability of VPAC-1 receptors to anti VPAC-1 after pre-treatment ([2]; A549 cells pre-treated, then anti-VPAC-1 immunostaining): significant loss in the immunostained cell population
effect on mitochondrial membrane potential (A549 cells): decreasing the mitochondrial membrane potential
IC50 [3]: > 30 µM
